Measured values published in the supplement of paper PMC7125110.
± gives the standard error. For some assays here: This sample holds only a part of the variants without activity.

B1: glmS ribozyme (parent)
chain: AUAAAAGCGCCAGAACUACAGAAAUGUAGUUGACGAGGAGGAGGUUUAUCGAAUUUUCGGCGGAUGCCUCCAAA

Key:
Details in all cases: with glucosamine-6-phosphate
[1] = variants of: B1; test: kcat; higher = faster cleavage; RNA array
Method in brief: (§1)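 Barcoded ribozyme variants, transcribed in situ by E. coli RNA polymerase on sequenced MiSeq chips, were followed via a hybridised Cy3 probe at 37 °C. Glucosamine-6-phosphate ranged from 40 μM to 10 mM in HEPES/KCl/Mg(OAc)2 buffer. kobs came from decay fits to per-tile medians, and kcat and KM from weighted Michaelis–Menten fits.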

[2] = variants of: B1; test: self-cleavage kobs at 40 uM GlcN6P; higher = faster cleavage; RNA array
Method in brief: as §1

[3] = variants of: B1; test: self-cleavage kobs at 160 uM GlcN6P; higher = faster cleavage; RNA array
Method in brief: as §1

[4] = variants of: B1; test: self-cleavage kobs at 640 uM GlcN6P; higher = faster cleavage; RNA array
Method in brief: as §1

[5] = variants of: B1; test: self-cleavage kobs at 2500 uM GlcN6P; higher = faster cleavage; RNA array
Method in brief: as §1

[6] = variants of: B1; test: self-cleavage kobs at 10000 uM GlcN6P; higher = faster cleavage; RNA array
Method in brief: as §1

[7] = variants of: B1; test: KM; higher = weaker cofactor use; RNA array
Method in brief: as §1

Row | Variant | kcat [1] [s⁻¹] | self-cleavage kobs at 40 uM GlcN6P [2] [s⁻¹] | self-cleavage kobs at 160 uM GlcN6P [3] [s⁻¹] | self-cleavage kobs at 640 uM GlcN6P [4] [s⁻¹] | self-cleavage kobs at 2500 uM GlcN6P [5] [s⁻¹] | self-cleavage kobs at 10000 uM GlcN6P [6] [s⁻¹] | KM [7] [µM]
1 | U47C U56A | 0.00197 ± 0.00092 | 3.94e-05 ± 9.3e-06 | 8.88e-05 ± 1.6e-05 | 0.000985 ± 0.00018 | 0.00159 ± 0.00039 | 0.00143 ± 0.00023 | 
2 | G13A G29C | 0.00011 ± 4.9e-06 |  |  |  | 5.98e-05 ± 1.3e-05 | 9.3e-05 ± 1.7e-05 | 1990 ± 240
3 | A39G C70A | 0.000304 ± 4.8e-05 | 6.17e-05 ± 1.2e-05 | 0.000136 ± 3.1e-05 | 0.000306 ± 4.3e-05 | 0.000172 ± 7.3e-05 | 0.000303 ± 5e-05 | 158 ± 60
4 | A52G U65G | 0.000271 ± 0.00011 |  |  | 5.52e-05 ± 9.3e-06 | 8.89e-05 ± 9.9e-06 | 0.00022 ± 3e-05 | 
5 | U49G C71G | 7.69e-05 ± 4.8e-06 |  |  | 4.8e-05 ± 8.8e-06 | 6.83e-05 ± 1.3e-05 | 7.21e-05 ± 9.4e-06 | 427 ± 120
6 | A42U U47G | 3.95e-05 ± 1.3e-06 | < 1e-05 |  |  |  | 2.38e-05 ± 9e-06 | 6570 ± 510
7 | U57A C61A | 1.53e-05 ± 5.7e-06 |  |  |  |  |  | 
8 | G51U C68A | 2.77e-05 ± 5e-06 |  |  |  |  |  | 
9 | A33U C58A | < 1e-05 |  | < 1e-05 | < 1e-05 |  |  | 
10 | A64G C67G | 0.000471 ± 1.9e-05 |  |  | 0.000111 ± 1.5e-05 | 0.000275 ± 6.1e-05 | 0.000386 ± 3.6e-05 | 2090 ± 180
11 | G37A G40U | 0.000159 ± 2e-05 |  |  | 3.99e-05 ± 7.5e-06 | 8.45e-05 ± 9.3e-06 | 0.000151 ± 4.4e-05 | 2050 ± 490
12 | G41U U46G | 0.00077 ± 0.00021 |  | 8.6e-05 ± 2.2e-05 | 0.000197 ± 4.2e-05 | 0.000433 ± 0.00011 | 0.000804 ± 0.00021 | 1560 ± 690
13 | C50G C70U | 0.000103 ± 2.1e-05 | 8.81e-05 ± 1e-05 | 0.000129 ± 1.5e-05 |  | 0.000149 ± 1.4e-05 | 7.8e-05 ± 8.6e-06 | 
14 | A12U U30A | 0.0401 ± 0.009 | 0.000782 ± 0.00011 |  | 0.0124 ± 0.0029 |  | 0.0321 ± 0.007 | 1980 ± 540
15 | G29A U49G | 6e-05 ± 8e-06 |  |  | 4.72e-05 ± 1.7e-05 | 4.32e-05 ± 1.4e-05 | 6.26e-05 ± 1.1e-05 | 
16 | A14U U30C | 2.9e-05 ± 1.4e-05 |  | < 1e-05 |  | 4.54e-05 ± 1.8e-05 |  | 

Row | Variant | kcat [1] [s⁻¹] | self-cleavage kobs at 40 uM GlcN6P [2] [s⁻¹] | self-cleavage kobs at 160 uM GlcN6P [3] [s⁻¹] | self-cleavage kobs at 640 uM GlcN6P [4] [s⁻¹] | self-cleavage kobs at 2500 uM GlcN6P [5] [s⁻¹] | self-cleavage kobs at 10000 uM GlcN6P [6] [s⁻¹] | KM [7] [µM]
17 | C10G C68G | 5.21e-05 ± 1.5e-05 |  |  | 4.42e-05 ± 1.8e-05 | 4.78e-05 ± 1.7e-05 |  | 
18 | C58A G66U | 5.19e-05 ± 5.8e-06 |  |  |  |  | 4.3e-05 ± 5.6e-06 | 
19 | A14G U65A | 0.0124 ± 0.0022 | 0.000169 ± 1.9e-05 | 0.000424 ± 8.6e-05 | 0.00213 ± 0.00035 | 0.00492 ± 0.00087 | 0.0094 ± 0.00098 | 3350 ± 800
20 | G13U C71U | 0.00114 ± 0.00015 | 2.24e-05 ± 7.7e-06 | 0.000105 ± 1.7e-05 | 0.000229 ± 3.7e-05 | 0.000673 ± 8.2e-05 | 0.000946 ± 9.8e-05 | 2020 ± 470
21 | G32A G40U | 0.00051 ± 0.0001 |  |  | 7.8e-05 ± 9.2e-06 | 0.000169 ± 2.5e-05 | 0.000401 ± 5.6e-05 | 3900 ± 1200
22 | U55A A64G | 0.0275 ± 0.012 | 0.000991 ± 0.00014 | 0.00181 ± 0.00043 | 0.0094 ± 0.0023 | 0.0275 ± 0.0092 | 0.0227 ± 0.0054 | 
23 | G38A U47G C71G | 1.15e-05 ± 1.8e-06 |  |  |  |  |  | 
24 | G32U A39U C67G | 0.000203 ± 2.3e-05 | < 1e-05 |  |  | 7.96e-05 ± 1.7e-05 | 0.00014 ± 2e-05 | 4340 ± 1100
25 | A12C G32C | 2.92e-05 ± 1.3e-06 | < 1e-05 |  |  |  | 2.2e-05 ± 6.6e-06 | 3260 ± 500
26 | U54C U69G | 6.89e-05 ± 7.2e-06 |  | 3.54e-05 ± 1.6e-05 | 5.03e-05 ± 1.1e-05 | 7.28e-05 ± 1.1e-05 | 5.47e-05 ± 1.8e-05 | 
27 | C50A U69G | 5.56e-05 ± 1.8e-05 | 2.65e-05 ± 1.3e-05 | 6.06e-05 ± 1.3e-05 | 7.86e-05 ± 1.3e-05 | 7.89e-05 ± 1.3e-05 |  | 
28 | A6C U55C | 0.000127 ± 4e-05 |  |  |  | 3.24e-05 ± 1.2e-05 | 7.95e-05 ± 1.6e-05 | 
29 | C16U A39G | 0.0255 ± 0.0088 | 0.00133 ± 0.00019 | 0.00365 ± 0.00075 | 0.00828 ± 0.0019 | 0.0177 ± 0.0063 | 0.0356 ± 0.0085 | 866 ± 400
30 | U31G C68U | 0.00134 ± 0.00023 | 3.14e-05 ± 7.7e-06 | 0.000119 ± 2.9e-05 | 0.000312 ± 4.3e-05 | 0.000606 ± 0.0001 | 0.00126 ± 0.00015 | 2020 ± 590
31 | A14G G51A | 1.48e-05 ± 1.8e-06 |  |  |  |  |  | 
32 | C16U U46C | 0.0025 ± 0.00034 | 7.03e-05 ± 1.7e-05 | 0.000295 ± 4.9e-05 | 0.000646 ± 0.00017 | 0.00192 ± 0.00029 | 0.00208 ± 0.00033 | 1320 ± 290
